US6506592 (BOARD OF REGENTS OF THE UNIVERSITY OF NEBRASKA, dated 2003)

Target: T1, Staphylococcus protein A (Staphylococcus, UniProt P38507 37-477)
T1 construct: Used to remove antibody-antigen complexes in the immunoprecipitation
Test: immunoprecipitation from T2 plant MI52E extract; residual alpha-glucosidase activity in the supernatant
Experimental: Tobacco leaf extracts to be used for detection of glycosyl hydrolase antigens were concentrated 3-fold by (NH_4)_2 SO_4 precipitation. […] Proteins (Amersham) were transferred to nitrocellulose and incubated. […] Concentrated plant protein extracts were diluted 1:10 in 10 mM tris-Cl pH 7.0. 50 ul of anti-malA antibodies were added to 200 ul of diluted extract and incubated for 2 hours at 4° C. with gentle agitation. […] Blots were soaked with a chemiluminescent substrate solution (Amersham) and results visualized by autoradiography and quantified by densitometry.
The residual activity remaining in the treated samples was then determined by enzyme assay.

binding result: no binding
B1: Sulfolobus solfataricus alpha-glucosidase (malA protein), recombinant (enzyme)
chain: MQTIKIYENKGVYKVVIGEPFPPIEFPLEQKISSNKSLSELGLTIVQQGNKVIVEKSLDLKEHIIGLGEKAFELDRKRKRYVMYNVDAGAYKKYQDPLYVSIPLFISVKDGVATGYFFNSASKVIFDVGLEEYDKVIVTIPEDSVEFYVIEGPRIEDVLEKYTELTGKPFLPPMWAFGYMISRYSYYPQDKVVELVDIMQKEGFRVAGVFLDIHYMDSYKLFTWHPYRFPEPKKLIDELHKRNVKLITIVDHGIRVDQNYSPFLSGMGKFCEIESGELFVGKMWPGTTVYPDFFREDTREWWAGLISEWLSQGVDGIWLDMNEPTDFSRAIEIRDVLSSLPVQFRDDRLVTTFPDNVVHYLRGKRVKHEKVRNAYPLYEAMATFKGFRTSHRNEIFILSRAGYAGIQRYAFIWTGDNTPSWDDLKLQLQLVLGLSISGVPFVGCDIGGFQGRNFAEIDNSMDLLVKYYALALFFPFYRSHKATDGIDTEPVFLPDYYKEKVKEIVELRYKFLPYIYSLALEASEKGHPVIRPLFYEFQDDDDMYRIEDEYMVGKYLLYAPIVSKEESRLVTLPRGKWYNYWNGEIINGKSVVKSTHELPIYLREGSIIPLEGDELIVYGETSFKRYDNAEITSSSNEIKFSREIYVSKLTITSEKPVSKIIVDDSKEIQVEKTMQNTYVAKINQKIRGKINLE
notes: 693 amino acids, 80.5 kDa subunit; Assayed as produced in transgenic tobacco (T2 plant MI52E extract) and as an E. coli-derived positive control; both come from the same malA coding region; also called malA polypeptide; recombinant alpha-glucosidase
